# Assay results as given in patent US20200317802A1 (Merck KGaA, published 2020).
# T1: recombinant human ADAMTS5 (R&D Systems cat #2198-AD) (human, UniProt Q9UNA0 262-622, limits assumed)
# T1 sequence: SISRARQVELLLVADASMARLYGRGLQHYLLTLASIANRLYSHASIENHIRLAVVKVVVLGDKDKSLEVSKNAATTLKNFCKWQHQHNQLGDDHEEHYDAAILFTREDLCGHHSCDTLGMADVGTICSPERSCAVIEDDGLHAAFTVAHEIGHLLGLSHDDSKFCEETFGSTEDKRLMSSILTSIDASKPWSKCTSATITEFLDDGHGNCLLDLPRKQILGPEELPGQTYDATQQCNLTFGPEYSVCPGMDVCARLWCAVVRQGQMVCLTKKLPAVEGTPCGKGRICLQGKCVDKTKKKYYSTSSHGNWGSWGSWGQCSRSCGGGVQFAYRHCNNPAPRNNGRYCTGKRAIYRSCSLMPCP
# T2: cynomolgus monkey recombinant ADAMTS5 (cynomolgus monkey, UniProt Q9UNA0 262-622 (human entry), limits assumed)
# T2 chain: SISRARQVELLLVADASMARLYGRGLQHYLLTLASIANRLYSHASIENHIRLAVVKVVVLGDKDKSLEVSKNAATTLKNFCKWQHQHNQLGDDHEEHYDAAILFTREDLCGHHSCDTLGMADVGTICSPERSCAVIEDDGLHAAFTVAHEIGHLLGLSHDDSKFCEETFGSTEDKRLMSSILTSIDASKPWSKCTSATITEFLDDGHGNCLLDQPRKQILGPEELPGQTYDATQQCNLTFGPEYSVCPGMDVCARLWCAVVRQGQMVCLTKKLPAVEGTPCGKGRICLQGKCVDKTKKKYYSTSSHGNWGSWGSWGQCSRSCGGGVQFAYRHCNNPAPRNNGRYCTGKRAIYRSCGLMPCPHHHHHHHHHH
# T3: guinea pig recombinant ADAMTS5 (guinea pig)
# T3 chain: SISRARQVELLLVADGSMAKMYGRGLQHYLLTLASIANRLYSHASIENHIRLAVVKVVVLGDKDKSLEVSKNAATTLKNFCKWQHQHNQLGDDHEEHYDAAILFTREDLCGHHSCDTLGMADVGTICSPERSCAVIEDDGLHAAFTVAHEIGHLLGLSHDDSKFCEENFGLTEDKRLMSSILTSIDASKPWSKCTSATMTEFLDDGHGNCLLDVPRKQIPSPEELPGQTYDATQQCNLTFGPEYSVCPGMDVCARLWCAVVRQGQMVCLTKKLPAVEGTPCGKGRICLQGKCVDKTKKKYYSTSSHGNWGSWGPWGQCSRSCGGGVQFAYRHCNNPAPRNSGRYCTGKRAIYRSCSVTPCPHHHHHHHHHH
# T4: mouse recombinant ADAMTS5 (mouse, UniProt Q9R001 262-622, limits assumed)
# T4 construct: in house, HEK293, His tag in the entry
# T4 sequence: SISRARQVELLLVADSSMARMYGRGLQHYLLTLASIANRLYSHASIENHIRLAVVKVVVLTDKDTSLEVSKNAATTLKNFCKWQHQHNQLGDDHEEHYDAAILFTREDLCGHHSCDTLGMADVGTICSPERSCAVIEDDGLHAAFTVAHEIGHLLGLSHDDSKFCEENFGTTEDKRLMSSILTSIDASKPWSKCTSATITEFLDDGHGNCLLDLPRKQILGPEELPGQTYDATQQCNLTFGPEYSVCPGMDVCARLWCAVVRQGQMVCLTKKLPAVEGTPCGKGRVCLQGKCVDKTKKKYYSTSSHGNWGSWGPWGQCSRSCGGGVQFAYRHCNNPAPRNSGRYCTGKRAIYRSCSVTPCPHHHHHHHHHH
# B1: monovalent Nanobody 2F3^SO (2F3*) (VHH)
# VHH: DVQLVESGGGVVQPGGSLRLSCAASGRTVSSYAMGWFRQAPGKEREFVAGISRSAERTYYVDSLKGRFTISRDNSKNTVYLQMNSLRPEDTALYYCAADLDPNRIFSREEYAYWGQGTLVTVSS
# B2: Nanobody 3B02 (VHH)
# VHH: EVQLVESGGGFVQAGGSLRLSCVASRRTISSGTMGWFRQAPGKEREFVAAIRWSSGMPYYLDSVMDRFTISRDNAKNTVSLQMNSLQPEDTAVYYCAADRSAFRDPSFDVNYEYWGRGTLVTVSS
# notes: tagged as tested (anti-Flag detection, IMAC); also called 03B02; 3B2
# B3: Nanobody 3D01 (VHH)
# VHH: EVQLVESGGGLVQAGGSLRLSCAPSGFTFSPYYMGWFRQAPGKERDFVAAISRSRGTTYYLDSTEGRFTISRDNANDTVYLQMNSLNPEDTAVYYCAAGRSPGDPSRTYLYDYWGQGTLVTVSS
# notes: tagged as tested (anti-Flag detection, IMAC); also called 03D01
# B4: Nanobody 2D07 (VHH)
# VHH: EVQLVESGGGLVQAGGSLRLSCSFSGPGRTFARYAMGWFRQAPGKNRDFITGISGSGDSTYYVYPMKDRFTISRDNAKNMVYLQMNALKPEDTAVYYCAADREINRIANDKELDFWGQGTLVTVSS
# notes: tagged as tested (anti-Flag detection, IMAC); also called 02D07; 2D7
# B5: Nanobody 9D03 (VHH)
# VHH: EVQLVESGGGLVQSGGSLRLSCAASGSAVSVNAMAWYRQAPGKQRDFVAGISRSAGRTYYTDSVKDRFTIARDSAKNTVYLQMNRLKPEDTAVYYCAADLDPNRIFSRDEAAYWGQGTLVTVSS
# notes: tagged as tested (anti-Flag detection, IMAC); also called 09D03; 9D3
# B6: Nanobody 11B06 (VHH)
# VHH: EVQLVESGGGLVQAGGSLRLSCAASGLTFRRNAMGWFRQAPGKERELLAGINWSGGTTYYVDSVKGRFTISRDNAKNTVDLQMISPKPEDTAVYYCAADGDIGTLVNDENPRYWGQGTLVTVSS
# notes: tagged as tested (anti-Flag detection, IMAC)
# Tests used:
# [1] = target: T1, recombinant human ADAMTS5 (R&D Systems …); test: cell-based or functional assay
# [2] = target: T1, recombinant human ADAMTS5 (R&D Systems …); test: cell-based or functional assay; remark: listed apart in the source
# [3] = target: T1, recombinant human ADAMTS5 (R&D Systems …); test: cell-based or functional assay; remark: listed apart in the source
# [4] = target: T1, recombinant human ADAMTS5 (R&D Systems …); test: cell-based or functional assay; remark: listed apart in the source
# [5] = target: T2, cynomolgus monkey recombinant ADAMTS5; test: cell-based or functional assay
# [6] = target: T3, guinea pig recombinant ADAMTS5; test: cell-based or functional assay
# [7] = target: T1, recombinant human ADAMTS5 (R&D Systems …); test: cell-based or functional assay; remark: listed apart in the source
# [8] = target: T1, recombinant human ADAMTS5 (R&D Systems …); test: binding ELISA, periplasmic extract on coated human ADAMTS5
# Protocol: In a first step, periplasmic extracts were tested for binding to recombinant human ADAMTS5 by binding ELISA. In brief, recombinant human ADAMTS5 (R&D Systems, Minneapolis, US; cat #2198-AD) at a concentration of 1 μg/ml was coated on 384-well MaxiSorp plates (Nunc, Wiesbaden, Germany). Wells were blocked with a casein solution (1%). After addition of a 10-fold dilution of the periplasmic extracts, Nanobody binding was detected using a mouse anti-Flag-HRP conjugate (Sigma, St. Louis, US) and a subsequent enzymatic reaction in the presence of the substrate esTMB (3,3′,5,5′-tetramentylbenzidine) (SDT, Brussels, Belgium). Clones showing ELISA signals higher than the sum of the average signal of the irrelevant Nanobody controls and 3 times the standard deviation of the irrelevant Nanobody controls were considered to encode positive human ADAMTS5 binding Nanobodies.
# [9] = target: T1, recombinant human ADAMTS5 (R&D Systems …); test: SPR off-rate, Biacore T100, ADAMTS5 immobilised, experiment 1
# Protocol: (§1) Species cross-reactivity was initially evaluated via SPR-based off-rate analysis on a Biacore T100 instrument. Nanobodies were tested for binding to human, cynomolgus monkey (“cyno”), guinea pig, mouse, and bovine ADAMTS5. To this end, recombinant ADAMTS5 was immobilized onto a CM5 chip via amine coupling using EDC and NHS. Purified Nanobodies were injected for 2 minutes at a concentration of 100 nM and allowed to dissociate for 15 min at a flow rate of 45 ul/min. Off-rate for each individual Nanobody was determined by fitting a 1:1 interaction model (Langmuir model) onto the individual dissociation curves using the BIA Evaluation software. As a reference, off-rates on human ADAMTS5 were determined in each experiment.
# [10] = target: T2, cynomolgus monkey recombinant ADAMTS5; test: as above
# Protocol: as §1
# [11] = target: T3, guinea pig recombinant ADAMTS5; test: as above
# Protocol: as §1
# [12] = target: T1, recombinant human ADAMTS5 (R&D Systems …); test: SPR off-rate, Biacore T100, ADAMTS5 immobilised, experiment 2
# Protocol: as §1
# [13] = target: T4, mouse recombinant ADAMTS5; test: as above
# Protocol: as §1
# [14] = target: T1, recombinant human ADAMTS5 (R&D Systems …); test: SPR off-rate, Biacore T100, ADAMTS5 immobilised, experiment 3
# Protocol: as §1
Binder,"AlphaLISA IC50, Exp 1 [1]","AlphaLISA IC50, Exp 2 [1]","AlphaLISA IC50, Exp 3 [1]","AlphaLISA IC50, Exp 4 [1]","FRET assay % inh, periplasmic extract [2]","FRET assay vi (U/min), periplasmic extract [2]",Human AlphaLISA % inhibition [3],Human AlphaLISA IC50 [3],"AlphaLISA potency IC50, Human [4]","AlphaLISA potency IC50, Cyno [5]","AlphaLISA potency IC50, Guinea pig [6]","AlphaLISA IC50, - HSA [7]",binding ELISA (OD 450 nm) [8],koff [9],koff [10],koff [11],koff [12],koff [13],koff [14]
B1,0.2 nM,0.27 nM,0.19 nM,0.44 nM,,,,,,,,,,,,,,,
B2,,,,,105%,-1 U/min,100%,0.3 nM,0.3 nM,0.19 nM,0.46 nM,0.3 nM,2.57 OD 450 nm,0.00073 s⁻¹,0.00074 s⁻¹,0.001 s⁻¹,0.00085 s⁻¹,0.002 s⁻¹,0.0012 s⁻¹
B3,,,,,111%,-2 U/min,96%,0.39 nM,0.39 nM,0.22 nM,0.35 nM,,2.57 OD 450 nm,0.00023 s⁻¹,0.0002 s⁻¹,0.00027 s⁻¹,0.00032 s⁻¹,0.00064 s⁻¹,0.00046 s⁻¹
B4,,,,,104%,-1 U/min,100%,0.19 nM,0.19 nM,0.15 nM,0.36 nM,0.19 nM,1.55 OD 450 nm,0.0011 s⁻¹,0.00098 s⁻¹,0.0011 s⁻¹,0.00094 s⁻¹,0.0018 s⁻¹,0.001 s⁻¹
B5,,,,,110%,-2 U/min,100%,0.11 nM,0.11 nM,0.12 nM,0.13 nM,0.11 nM,,0.00098 s⁻¹,0.00092 s⁻¹,0.001 s⁻¹,0.0012 s⁻¹,0.0037 s⁻¹,0.0014 s⁻¹
B6,,,,,106%,-1 U/min,100%,0.1 nM,0.1 nM,0.12 nM,0.35 nM,,,0.00017 s⁻¹,0.00014 s⁻¹,0.00017 s⁻¹,0.00027 s⁻¹,0.00053 s⁻¹,0.00038 s⁻¹
